For this experiment, the target named is T1, Histidine-tagged AIMP1 (immobilised in SPR) (UniProt Q12904 1-312).
T1 sequence (looked up): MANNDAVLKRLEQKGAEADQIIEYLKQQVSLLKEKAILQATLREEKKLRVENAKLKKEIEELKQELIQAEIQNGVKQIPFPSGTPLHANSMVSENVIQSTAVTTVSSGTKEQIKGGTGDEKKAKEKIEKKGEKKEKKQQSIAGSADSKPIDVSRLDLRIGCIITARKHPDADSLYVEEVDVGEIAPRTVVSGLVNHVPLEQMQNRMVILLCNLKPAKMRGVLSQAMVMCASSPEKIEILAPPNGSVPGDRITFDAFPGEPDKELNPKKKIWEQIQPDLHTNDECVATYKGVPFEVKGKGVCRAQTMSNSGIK
The experiment is described as follows: SPR. (In general: Surface plasmon resonance follows binding to a sensor surface in real time, without labels.)

B1: His-tagged AIMP3 (natural protein, UniProt O43324 1-174, looked up)
chain: MAAAAELSLLEKSLGLSKGNKYSAQGERQIPVLQTNNGPSLTGLTTIAAHLVKQANKEYLLGSTAEEKAIVQQWLEYRVTQVDGHSSKNDIHTLLKDLNSYLEDKVYLTGYNFTLADILLYYGLHRFIVDLTVQEKEKYLNVSRWFCHIQHYPGIRQHLSSVVFIKNRLYTNSH
Molecule B1 yielded a Kd of 25.3 nM.

What is called Kd is a measure of binding affinity in units of concentration. Read a high Kd as lower affinity.
